Tests used:
[1] = biological target: T1, Wildtype E. coli full-length DnaK (E. coli, UniProt P0A6Y8 1-638); assay: not stated; data not shown; nucleotide-free DnaK/GrpE
T1 construct: Escherichia coli Hsp70 DnaK, wildtype, full length; 2H, ILV 13C-methyl labelled and nucleotide free in the NMR experiments

[2] = biological target: T2, DnaK nucleotide-binding domain NBD^1–392 T199A (E. coli, UniProt P0A6Y8 1-392, T199A); assay: NMR titration; HMQC spectra of 2H, 13C-methyl ILV labelled protein, 25 °C; nucleotide free; 40 μM NBD^1–392 T199A plus 40 μM GrpE or truncated variants, or 60 μM DnaK plus 80 μM GrpE or truncated variants; settings: both partners purified
T2 construct: Nucleotide free unless specified; Used unlabelled in SPR and 2H-15N labelled or 2H, ILV 13C-methyl labelled in NMR; also called DnaK NBD; wildtype NBD

[3] = biological target: T1, Wildtype E. coli full-length DnaK; assay: as above; settings: both partners purified
[4] = biological target: T2, DnaK nucleotide-binding domain …; assay: SPR; Biacore T-200, NTA sensor chip activated with Ni2+; N-terminal His-tagged GrpE immobilised; nucleotide-free NBD^1–392 T199A or its variants perfused at diverse concentrations; control without GrpE subtracted; equilibrium and kinetic fits; settings: both partners purified
DnaK NBD^1–392 Q260R = DnaK NBD^1–392 Q260R (E. coli, UniProt P0A6Y8 1-392, T199A | Q260R); assay: as above; settings: both partners purified
DnaK NBD^1–392 Y285R = DnaK NBD^1–392 Y285R (E. coli, UniProt P0A6Y8 1-392, T199A | Y285R); assay: as above; settings: both partners purified
[5] = biological target: DnaK NBD^1–392 Δ285 to 295 (E. coli, UniProt P0A6Y8 1-392, T199A | Δ285 to 295); assay: as above; settings: both partners purified

B1: GrpE, full-length wildtype, His tag cleaved (natural protein, E. coli, UniProt P09372 1-197, looked up)
chain: MSSKEQKTPEGQAPEEIIMDQHEEIEAVEPEASAEQVDPRDEKVANLEAQLAEAQTRERDGILRVKAEMENLRRRTELDIEKAHKFALEKFINELLPVIDSLDRALEVADKANPDMSAMVEGIELTLKSMLDVVRKFGVEVIAETNVPLDPNVHQAIAMVESDDVAPGNVLGIMQKGYTLNGRTIRAAMVTVAKAKA
notes: Escherichia coli GrpE, nucleotide-exchange factor of DnaK, wildtype, full length; also called full-length GrpE; wildtype GrpE; source: E. coli BL21(DE3), purified (Ni-NTA, TEV cleavage, second Ni-NTA); not shown: His tag, N-terminal, cleaved
Kd [1]: 3 nM

B2: GrpE^69–197 (domain or fragment, E. coli, UniProt P09372 69-197, looked up)
chain: MENLRRRTELDIEKAHKFALEKFINELLPVIDSLDRALEVADKANPDMSAMVEGIELTLKSMLDVVRKFGVEVIAETNVPLDPNVHQAIAMVESDDVAPGNVLGIMQKGYTLNGRTIRAAMVTVAKAKA
notes: lacks the N-terminal disordered tail and a portion of the coiled-coil domain; 2H-labelled for the 1H-15N HSQC experiments; also called truncated GrpE variant; source: E. coli BL21(DE3), purified (Ni-NTA, TEV cleavage, second Ni-NTA)
binding result [2]: binds
binding result [3]: binds

B3: N-terminal His-tagged GrpE (natural protein, E. coli, UniProt P09372 1-197, looked up)
chain: MSSKEQKTPEGQAPEEIIMDQHEEIEAVEPEASAEQVDPRDEKVANLEAQLAEAQTRERDGILRVKAEMENLRRRTELDIEKAHKFALEKFINELLPVIDSLDRALEVADKANPDMSAMVEGIELTLKSMLDVVRKFGVEVIAETNVPLDPNVHQAIAMVESDDVAPGNVLGIMQKGYTLNGRTIRAAMVTVAKAKA
notes: Held on the Ni-NTA sensor chip by its His tag in SPR; source: E. coli BL21(DE3), purified (Ni-NTA); not shown: His tag, N-terminal, kept
Kd [4]: 3.8 ± 0.6 nM
koff [4]: 0.021 s⁻¹
kon [4]: 5.9e+06 M⁻¹ s⁻¹
Kd (DnaK NBD^1–392 Q260R): 4.1 ± 0.3 nM
koff (DnaK NBD^1–392 Q260R): 0.0231 s⁻¹
kon (DnaK NBD^1–392 Q260R): 5.6e+06 M⁻¹ s⁻¹
Kd (DnaK NBD^1–392 Y285R): 120 ± 10 nM
koff (DnaK NBD^1–392 Y285R): 0.0178 s⁻¹
kon (DnaK NBD^1–392 Y285R): 24000 M⁻¹ s⁻¹
Kd [5]: 440 ± 60 nM
koff [5]: 0.0158 s⁻¹
kon [5]: 39000 M⁻¹ s⁻¹

Reference: publication PMC10825016, “New insights into the structure and function of the complex between the Escherichia coli Hsp70, DnaK, and its nucleotide-exchange factor, GrpE” (The Journal of Biological Chemistry, 2023)
